Test results taken from patent publication US20220249561A1 (SHINSHU UNIVERSITY, published 2022).

B1: Ligand 003P (ligand)
chain: DGHHHHHHGSLQDSEVNQEAKPEVKPEVKPETHINLKVSDGSSEIFFKIKKTTPLRRLMEAFAKRQGKEMDSLTFLYDGIEIQADQTPEDLDMEDNDIIEAHREQIGGLEVLFQGPAEAAGLGPSPEQRVEIVPRDLRMKDKFLKHLTGPLYFSPKCSKHFHRLYHNTRDCTIPAYYKRCARLLTRLAVSPVCMEDKQ
B2: Ligand 019P (ligand)
chain: DGHHHHHHGSLQDSEVNQEAKPEVKPEVKPETHINLKVSDGSSEIFFKIKKTTPLRRLMEAFAKRQGKEMDSLTFLYDGIEIQADQTPEDLDMEDNDIIEAHREQIGGLEVLFQGPFLKHLTGPLYFSPKCSKHFHRLYHNTRDCTIPAYYKRCARLLTRLAVSPVCMEDKQ
B3: Ligand 017P (ligand)
chain: DGHHHHHHGSLQDSEVNQEAKPEVKPEVKPETHINLKVSDGSSEIFFKIKKTTPLRRLMEAFAKRQGKEMDSLTFLYDGIEIQADQTPEDLDMEDNDIIEAHREQIGGLEVLFQGPMKDKFLKHLTGPLYFSPKCSKHFHRLYHNTRDCTIPAYYKRCARLLTRLAVSPVCMEDKQ
B4: Ligand 005P (ligand)
chain: DGHHHHHHGSLQDSEVNQEAKPEVKPEVKPETHINLKVSDGSSEIFFKIKKTTPLRRLMEAFAKRQGKEMDSLTFLYDGIEIQADQTPEDLDMEDNDIIEAHREQIGGLEVLFQGPALGRAEAAGLGPSPEQRVEIVPRDLRMKDKFLKHLTGPLYFSPKCSKHFHRLYHNTRDCTIPAYYKRCARLLTRLAVSPVCMEDKQ
B5: Ligand 010P (ligand)
chain: DGHHHHHHGSLQDSEVNQEAKPEVKPEVKPETHINLKVSDGSSEIFFKIKKTTPLRRLMEAFAKRQGKEMDSLTFLYDGIEIQADQTPEDLDMEDNDIIEAHREQIGGLEVLFQGPSPEQRVEIVPRDLRMKDKFLKHLTGPLYFSPKCSKHFHRLYHNTRDCTIPAYYKRCARLLTRLAVSPVCMEDKQ
B6: Ligand 009P (ligand)
chain: DGHHHHHHGSLQDSEVNQEAKPEVKPEVKPETHINLKVSDGSSEIFFKIKKTTPLRRLMEAFAKRQGKEMDSLTFLYDGIEIQADQTPEDLDMEDNDIIEAHREQIGGLEVLFQGPGPSPEQRVEIVPRDLRMKDKFLKHLTGPLYFSPKCSKHFHRLYHNTRDCTIPAYYKRCARLLTRLAVSPVCMEDKQ
B7: Ligand 018P (ligand)
chain: DGHHHHHHGSLQDSEVNQEAKPEVKPEVKPETHINLKVSDGSSEIFFKIKKTTPLRRLMEAFAKRQGKEMDSLTFLYDGIEIQADQTPEDLDMEDNDIIEAHREQIGGLEVLFQGPDKFLKHLTGPLYFSPKCSKHFHRLYHNTRDCTIPAYYKRCARLLTRLAVSPVCMEDKQ
notes: also called Ligand 18P
B8: Ligand 022P (ligand)
chain: DGHHHHHHGSLQDSEVNQEAKPEVKPEVKPETHINLKVSDGSSEIFFKIKKTTPLRRLMEAFAKRQGKEMDSLTFLYDGIEIQADQTPEDLDMEDNDIIEAHREQIGGLEVLFQGPGPLYFSPKCSKHFHRLYHNTRDCTIPAYYKRCARLLTRLAVSPVCMEDKQ
B9: Ligand 015P (ligand)
chain: DGHHHHHHGSLQDSEVNQEAKPEVKPEVKPETHINLKVSDGSSEIFFKIKKTTPLRRLMEAFAKRQGKEMDSLTFLYDGIEIQADQTPEDLDMEDNDIIEAHREQIGGLEVLFQGPRDLRMKDKFLKHLTGPLYFSPKCSKHFHRLYHNTRDCTIPAYYKRCARLLTRLAVSPVCMEDKQ
B10: Ligand 020P (ligand)
chain: DGHHHHHHGSLQDSEVNQEAKPEVKPEVKPETHINLKVSDGSSEIFFKIKKTTPLRRLMEAFAKRQGKEMDSLTFLYDGIEIQADQTPEDLDMEDNDIIEAHREQIGGLEVLFQGPKHLTGPLYFSPKCSKHFHRLYHNTRDCTIPAYYKRCARLLTRLAVSPVCMEDKQ
B11: Ligand 024P (ligand)
chain: DGHHHHHHGSLQDSEVNQEAKPEVKPEVKPETHINLKVSDGSSEIFFKIKKTTPLRRLMEAFAKRQGKEMDSLTFLYDGIEIQADQTPEDLDMEDNDIIEAHREQIGGLEVLFQGPAEAAGLGPSPEQRVEIVPRDLRMKDKFLKHLTGPLYFSPKCSKHFHRLYHNTRDCTIPAYYKRCARLLTRLAVSPVCM
B12: Ligand 006P (ligand)
chain: DGHHHHHHGSLQDSEVNQEAKPEVKPEVKPETHINLKVSDGSSEIFFKIKKTTPLRRLMEAFAKRQGKEMDSLTFLYDGIEIQADQTPEDLDMEDNDIIEAHREQIGGLEVLFQGPGRAEAAGLGPSPEQRVEIVPRDLRMKDKFLKHLTGPLYFSPKCSKHFHRLYHNTRDCTIPAYYKRCARLLTRLAVSPVCMEDKQ
B13: Ligand 016P (ligand)
chain: DGHHHHHHGSLQDSEVNQEAKPEVKPEVKPETHINLKVSDGSSEIFFKIKKTTPLRRLMEAFAKRQGKEMDSLTFLYDGIEIQADQTPEDLDMEDNDIIEAHREQIGGLEVLFQGPLRMKDKFLKHLTGPLYFSPKCSKHFHRLYHNTRDCTIPAYYKRCARLLTRLAVSPVCMEDKQ
B14: Ligand 012P (ligand)
chain: DGHHHHHHGSLQDSEVNQEAKPEVKPEVKPETHINLKVSDGSSEIFFKIKKTTPLRRLMEAFAKRQGKEMDSLTFLYDGIEIQADQTPEDLDMEDNDIIEAHREQIGGLEVLFQGPRVEIVPRDLRMKDKFLKHLTGPLYFSPKCSKHFHRLYHNTRDCTIPAYYKRCARLLTRLAVSPVCMEDKQ
B15: Ligand 021P (ligand)
chain: DGHHHHHHGSLQDSEVNQEAKPEVKPEVKPETHINLKVSDGSSEIFFKIKKTTPLRRLMEAFAKRQGKEMDSLTFLYDGIEIQADQTPEDLDMEDNDIIEAHREQIGGLEVLFQGPLTGPLYFSPKCSKHFHRLYHNTRDCTIPAYYKRCARLLTRLAVSPVCMEDKQ
B16: Ligand 008P (ligand)
chain: DGHHHHHHGSLQDSEVNQEAKPEVKPEVKPETHINLKVSDGSSEIFFKIKKTTPLRRLMEAFAKRQGKEMDSLTFLYDGIEIQADQTPEDLDMEDNDIIEAHREQIGGLEVLFQGPGLGPSPEQRVEIVPRDLRMKDKFLKHLTGPLYFSPKCSKHFHRLYHNTRDCTIPAYYKRCARLLTRLAVSPVCMEDKQ
B17: Ligand 007P (ligand)
chain: DGHHHHHHGSLQDSEVNQEAKPEVKPEVKPETHINLKVSDGSSEIFFKIKKTTPLRRLMEAFAKRQGKEMDSLTFLYDGIEIQADQTPEDLDMEDNDIIEAHREQIGGLEVLFQGPAAGLGPSPEQRVEIVPRDLRMKDKFLKHLTGPLYFSPKCSKHFHRLYHNTRDCTIPAYYKRCARLLTRLAVSPVCMEDKQ
B18: Ligand 011P (ligand)
chain: DGHHHHHHGSLQDSEVNQEAKPEVKPEVKPETHINLKVSDGSSEIFFKIKKTTPLRRLMEAFAKRQGKEMDSLTFLYDGIEIQADQTPEDLDMEDNDIIEAHREQIGGLEVLFQGPEQRVEIVPRDLRMKDKFLKHLTGPLYFSPKCSKHFHRLYHNTRDCTIPAYYKRCARLLTRLAVSPVCMEDKQ
notes: also called Li 011P
B19: Ligand 014P (ligand)
chain: DGHHHHHHGSLQDSEVNQEAKPEVKPEVKPETHINLKVSDGSSEIFFKIKKTTPLRRLMEAFAKRQGKEMDSLTFLYDGIEIQADQTPEDLDMEDNDIIEAHREQIGGLEVLFQGPVPRDLRMKDKFLKHLTGPLYFSPKCSKHFHRLYHNTRDCTIPAYYKRCARLLTRLAVSPVCMEDKQ
B20: Ligand 013P (ligand)
chain: DGHHHHHHGSLQDSEVNQEAKPEVKPEVKPETHINLKVSDGSSEIFFKIKKTTPLRRLMEAFAKRQGKEMDSLTFLYDGIEIQADQTPEDLDMEDNDIIEAHREQIGGLEVLFQGPEIVPRDLRMKDKFLKHLTGPLYFSPKCSKHFHRLYHNTRDCTIPAYYKRCARLLTRLAVSPVCMEDKQ
B21: Ligand 023P (ligand)
chain: DGHHHHHHGSLQDSEVNQEAKPEVKPEVKPETHINLKVSDGSSEIFFKIKKTTPLRRLMEAFAKRQGKEMDSLTFLYDGIEIQADQTPEDLDMEDNDIIEAHREQIGGLEVLFQGPAEAAGLGPSPEQRVEIVPRDLRMKDKFLKHLTGPLYFSPKCSKHFHRLYHNTRDCTIPAYYKRCARLLTRLAVSPVCMED

target: T1, ALK 001P; experiment: SPR, Biacore 8K; ALK 001P captured on Protein A chip, ligand as analyte, 6 concentrations from 20 nM
T1 construct: ALK (1-19) is described only as a region comprising a secretory signal, and no cleavage site is stated; Expressed in Expi293 cells and captured on a Protein A chip through its Fc

Row | Binder | binding result
1 | B1 | binds
2 | B2 | binds
3 | B3 | binds
4 | B4 | binds
5 | B5 | binds
6 | B6 | binds
7 | B7 | binds
8 | B8 | binds
9 | B9 | binds
10 | B10 | binds
11 | B11 | binds
12 | B12 | binds
13 | B13 | binds
14 | B14 | binds
15 | B15 | binds
16 | B16 | binds
17 | B17 | binds
18 | B18 | binds
19 | B19 | binds
20 | B20 | binds
21 | B21 | binds

target: T2, LTK 001P; experiment: SPR, Biacore 8K; LTK 001P captured on Protein A chip, ligand as analyte, 6 concentrations from 20 nM
T2 construct: Expressed in Expi293 cells and captured on a Protein A chip through its Fc

Row | Binder | binding result
22 | B1 | binds
23 | B2 | binds
24 | B3 | binds
25 | B4 | binds
26 | B5 | binds
27 | B6 | binds
28 | B7 | binds
29 | B8 | binds
30 | B9 | binds
31 | B10 | binds
32 | B11 | binds
33 | B12 | binds
34 | B13 | binds
35 | B14 | binds
36 | B15 | binds
37 | B16 | binds
38 | B17 | binds
39 | B18 | binds
40 | B19 | binds
41 | B20 | binds
42 | B21 | binds
